Measurements reported in patent US20260356924 (published 2026).
Substitutions are numbered along the chain they refer to. One block for each binder: values may come before it.

Columns and labels:
ePHF = ePHF (human, UniProt P10636); experiment: ELISA
iPHF [1] = molecular target: T1, iPHF (human, UniProt P10636); experiment: BLI
iPHF [2] = molecular target: T1, iPHF; experiment: SPR
Tau409-426 pS422 peptide = molecular target: T2, Tau409-426 pS422 peptide (human); experiment: SPR
T2 chain: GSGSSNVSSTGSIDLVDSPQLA

wild type tau = wild type tau (human); experiment: ELISA
wild type tau (human), sequence (P10636 other isoform, or with tags, fused parts or gaps): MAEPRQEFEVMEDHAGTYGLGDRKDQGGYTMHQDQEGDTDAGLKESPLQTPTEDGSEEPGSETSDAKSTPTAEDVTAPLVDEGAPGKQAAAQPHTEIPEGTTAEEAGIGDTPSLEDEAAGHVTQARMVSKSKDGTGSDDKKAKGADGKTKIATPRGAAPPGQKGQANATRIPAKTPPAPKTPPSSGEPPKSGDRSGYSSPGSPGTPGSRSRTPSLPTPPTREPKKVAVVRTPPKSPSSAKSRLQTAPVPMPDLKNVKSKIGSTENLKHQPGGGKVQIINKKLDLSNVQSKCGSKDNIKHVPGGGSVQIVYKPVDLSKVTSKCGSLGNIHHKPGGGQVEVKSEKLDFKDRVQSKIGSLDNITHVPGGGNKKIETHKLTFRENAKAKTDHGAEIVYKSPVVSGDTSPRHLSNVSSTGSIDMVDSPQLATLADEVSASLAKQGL

ePHF, sequence (P10636 2-758): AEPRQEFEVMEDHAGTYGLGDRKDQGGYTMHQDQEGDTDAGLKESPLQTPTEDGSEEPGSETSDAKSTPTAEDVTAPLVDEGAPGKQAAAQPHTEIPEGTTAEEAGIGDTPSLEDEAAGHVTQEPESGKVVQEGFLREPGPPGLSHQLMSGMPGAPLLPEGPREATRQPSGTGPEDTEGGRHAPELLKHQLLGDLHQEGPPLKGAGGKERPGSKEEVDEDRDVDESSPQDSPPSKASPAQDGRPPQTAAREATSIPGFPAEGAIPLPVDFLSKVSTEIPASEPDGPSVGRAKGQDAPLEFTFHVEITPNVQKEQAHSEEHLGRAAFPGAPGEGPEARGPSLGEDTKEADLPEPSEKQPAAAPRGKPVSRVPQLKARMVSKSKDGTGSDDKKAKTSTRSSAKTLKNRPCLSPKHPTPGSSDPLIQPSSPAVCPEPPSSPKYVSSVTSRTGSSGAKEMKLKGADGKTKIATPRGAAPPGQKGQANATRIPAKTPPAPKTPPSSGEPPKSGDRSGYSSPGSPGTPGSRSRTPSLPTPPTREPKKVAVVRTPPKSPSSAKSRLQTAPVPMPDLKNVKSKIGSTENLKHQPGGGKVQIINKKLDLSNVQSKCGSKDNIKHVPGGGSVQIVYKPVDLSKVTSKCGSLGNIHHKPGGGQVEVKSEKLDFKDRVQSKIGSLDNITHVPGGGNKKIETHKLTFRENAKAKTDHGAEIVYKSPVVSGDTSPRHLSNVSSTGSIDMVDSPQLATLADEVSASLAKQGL
T1 sequence (P10636 2-758): as above

B2: V0004 (antibody, V domains shown)
VH: QVQLQQPGAELVKPGASVKLSCKASDYTFTNYWMHWVKQRPGRGLEWIGRIDPNSGGTRYNEKFKNKATLTVDKPSSTAYMHLSSLTSEDSAVYYCAGDFDVWGTGTTVTVSS
VL: DIQMTQSPASLSASVGETVTITCRASGNIHNYLAWYQQRQGKSPQLLVYNAKTLPDGVPSRFSGSGSGTQYSLKINSLQPEDFGSYCCQHFWSTPLTFGAGTKLELK
modifications: immunopurified paired helical filament tau, hyperphosphorylated
- Kd (iPHF [1]): 20000 pM

B3: V0023 (antibody, V domains shown)
VH: QVQLQQPGTELVKPGASVKLSCKASGYTFTIFWMHWVKQRPGHGLEWIGKINPNNGGGDYNEKFKSKATLTVDKSSTTAYLQLSSLTSEDSAVYYCARGTGTGAMDYWGQGTSVTVSS
VL: DVVMTQTPLSLPVSLGDHASISCRSSQSLVHSNGITHLYWYLQRPGQTPKLLIYRVSNRFSGVPDRFSGSGSGTDFTLKISSVEAEDLGVYFCFQGTHVPRTFGGGTKLEIE
modifications: enriched paired helical filament tau, hyperphosphorylated
- EC50 (ePHF): 110 pM

B6: V0022 (antibody, V domains shown)
VH: QVQLQQPGTELVKPGSSVNLSCKASGFTFTRYWMHWVKERPGHGLEWIGNINPNNGGTDFNEKFKNKATLTVHKSSTTVFIQLSSLTSEDSAVYYCARGTGTGAMDYWGQGTSVTVSS
VL: B3 VL with H18Q, S32N, H37Y, R44K, T48S, S68G, S82R, E112K
modifications: immunopurified paired helical filament tau, hyperphosphorylated
- Kd (iPHF [2]): 43.9 pM
- Kd (iPHF [1]): 300 pM

B8: V0022 (antibody, V domains shown)
VH: B6 VH
VL: B3 VL with H18Q, S32N, H37Y, R44K, T48S, S68G, S82R, E112K
modifications: enriched paired helical filament tau, hyperphosphorylated
- EC50 (ePHF): 70 pM

B9: V0009 (antibody, V domains shown)
VH: EVQLVESGGALVQPGGSLSLSCAASGFTFTDYYMSWVRQPPGKALEWLALIRNKAKGFTTEYSASVKGRFTISRDNSQSILLFQMNDLRADDSATYYCVRDINYWGQGTTLTVSS
VL: not shown
modifications: immunopurified paired helical filament tau, hyperphosphorylated
- Kd (iPHF [2]): 296 pM
- Kd (iPHF [1]): 200 pM

B10: V0009 (antibody, V domains shown)
VH: B9 VH
VL: not shown
modifications: enriched paired helical filament tau, hyperphosphorylated
- EC50 (ePHF): 38 pM

B11: Ab1 (antibody, V domains shown)
VH: QVQLVQSGAEVKKSGASVKVSCKASGFTFTRYWMHWVRQAPGQGLEWIGNINPNNGGTDFNEKFKNRVTLIRDTSTTTVFIQLTSLTSEDSAVYYCARGTGTGAMDYWGQGTLVTVSS
VL: DIVMTQSPLSLSVTPGQPASISCRSSQSLVHNNGITYLYWYLQKPGQSPQLLIYRVSNRFSGVPDRFSGSGSGTDFTLKISRVEAEDVGVYYCFQGTHVPRTFGQGTKVEIK
- Kd (Tau409-426 pS422 peptide): 40.8 pM

B12: Ab9 (antibody, V domains shown)
VH: EVQLVQSGAEVKKPGSSVKVSCKASGFTFTRYWMHWVKERPGHGLEWIGNINPNNGGTDFNEKFKNRVTMTVHKSITTAYMELSRLTSDDSAVYYCARGTGTGAMDYWGQGTLVSVSS
VL: B11 VL
modifications: non-phosphorylated recombinant tau
- binding result (wild type tau): no binding

B13: Ab8 (antibody, V domains shown)
VH: B11 VH
VL: B11 VL with I2V, S12P, P15L, L42Q, K44R, Q50R, V109L
- Kd (Tau409-426 pS422 peptide): 53.3 pM

B14: Ab4 (antibody, V domains shown)
VH: QVQLVQSGAEVKKPGASVKVSCKASGFTFTRYWMHWVKERPGQGLEWMGNINPNNGGTDFNEKFKNRVTMTVHKSTSTVFIQLSSLRSEDTAVYYCARGTGTGAMDYWGQGTSVTVSS
VL: B11 VL
modifications: non-phosphorylated recombinant tau
- binding result (wild type tau): no binding

B15: Ab8 (antibody, V domains shown)
VH: B11 VH
VL: B11 VL with I2V, S12P, P15L, L42Q, K44R, Q50R, V109L
modifications: non-phosphorylated recombinant tau
- binding result (wild type tau): no binding

B16: Ab1 (antibody, V domains shown)
VH: B11 VH
VL: B11 VL
modifications: non-phosphorylated recombinant tau
- binding result (wild type tau): no binding

B18: Ab7 (antibody, V domains shown)
VH: B12 VH with E1Q, S16A, K38R, T77S, R85S, T87R, S115T
VL: B11 VL with I2V, S12P, P15L, L42Q, K44R, Q50R, V109L
- Kd (Tau409-426 pS422 peptide): 39.8 pM

B21: Ab3 (antibody, V domains shown)
VH: B12 VH
VL: B11 VL with I2V, S12P, P15L, L42Q, K44R, Q50R, V109L
- Kd (Tau409-426 pS422 peptide): 45.7 pM

B23: Ab2 (antibody, V domains shown)
VH: B14 VH with Q6E, Q43H, M70I, T76A, V79A, F80Y, I81M, Q82E, S113T
VL: B11 VL with I2V, S12P, P15L, L42Q, K44R, Q50R, V109L
- Kd (Tau409-426 pS422 peptide): 38.6 pM

B24: Ab9 (antibody, V domains shown)
VH: B12 VH
VL: B11 VL
- Kd (Tau409-426 pS422 peptide): 76.3 pM

B25: Ab2 (antibody, V domains shown)
VH: B14 VH with Q6E, Q43H, M70I, T76A, V79A, F80Y, I81M, Q82E, S113T
VL: B11 VL with I2V, S12P, P15L, L42Q, K44R, Q50R, V109L
modifications: non-phosphorylated recombinant tau
- binding result (wild type tau): no binding

B26: Ab5 (antibody, V domains shown)
VH: B14 VH
VL: DIVMTQTPLSSPVTLGQPASISCRSSQSLVHNNGITYLYWYQQRPGQPPRLLIYRVSNRFSGVPDRFSGSGAGTDFTLKINRVEAEDVGVYFCFQGTHVPRTFGQGTKLEIK
- Kd (Tau409-426 pS422 peptide): 29.4 pM

B27: Ab10 (antibody, V domains shown)
VH: B12 VH
VL: B26 VL
- Kd (Tau409-426 pS422 peptide): 43.6 pM

B28: Ab10 (antibody, V domains shown)
VH: B12 VH
VL: B26 VL
modifications: non-phosphorylated recombinant tau
- binding result (wild type tau): no binding

Next, values leading:

- EC50 (ePHF): 83 pM
B1: V0004 (antibody, V domains shown)
VH: B2 VH
VL: B2 VL
modifications: enriched paired helical filament tau, hyperphosphorylated

- Kd (iPHF [2]): 124 pM
- Kd (iPHF [1]): 2800 pM
B4: V0024 (antibody, V domains shown)
VH: B3 VH with I31R, H43Q, K50N, G58T, Y60N, K63R, K74R, T77S, L81M
VL: B3 VL with H18Q, I35N, R44K, T48S, N58S, S82R, E112K
modifications: immunopurified paired helical filament tau, hyperphosphorylated

- EC50 (ePHF): 125 pM
B5: V0024 (antibody, V domains shown)
VH: B3 VH with I31R, H43Q, K50N, G58T, Y60N, K63R, K74R, T77S, L81M
VL: B3 VL with H18Q, I35N, R44K, T48S, N58S, S82R, E112K
modifications: enriched paired helical filament tau, hyperphosphorylated

- Kd (iPHF [2]): 57.8 pM
- Kd (iPHF [1]): 4000 pM
B7: V0023 (antibody, V domains shown)
VH: B3 VH
VL: B3 VL
modifications: immunopurified paired helical filament tau, hyperphosphorylated

- binding result (wild type tau): no binding
B17: Ab6 (antibody, V domains shown)
VH: B14 VH with Q6E, Q43H, M70I, T76A, V79A, F80Y, I81M, Q82E, S113T
VL: B11 VL
modifications: non-phosphorylated recombinant tau

- Kd (Tau409-426 pS422 peptide): 39.8 pM
B19: Ab6 (antibody, V domains shown)
VH: B14 VH with Q6E, Q43H, M70I, T76A, V79A, F80Y, I81M, Q82E, S113T
VL: B11 VL

- Kd (Tau409-426 pS422 peptide): 40.3 pM
B20: Ab11 (antibody, V domains shown)
VH: B14 VH
VL: B11 VL with I2V, S12P, P15L, L42Q, K44R, Q50R, V109L

- Kd (Tau409-426 pS422 peptide): 36.1 pM
B22: Ab4 (antibody, V domains shown)
VH: B14 VH
VL: B11 VL

- binding result (wild type tau): no binding
B29: Ab5 (antibody, V domains shown)
VH: B14 VH
VL: B26 VL
modifications: non-phosphorylated recombinant tau
